The values below come from US20090098112A1 (Genentech, published 2009).

The target of experiment [1] is T1, recombinant human integrin α5β1 (R&D) (human, UniProt P08648 42-995; P05556 21-728).
T1 construct: Bought recombinant heterodimer (R&D); It was used coated on plates and in solution in the phage ELISA, and as analyte or immobilized in BIAcore; also called alpha5beta1; a5b1
Put plainly: phage competition ELISA: Fab-phage incubated with serially diluted soluble human integrin α5β1, unbound phage captured on plate-coated integrin α5β1, anti-M13-HRP, A450. The procedure:
Mutation at each position was generated by Kunkel mutagenesis using a separate oligonucleotide. Phage competition ELISA was utilized for evaluating all of the variants. […] Binding affinities (IC50) against human integrin α5β1 was determined.
(§1) MAXISORP™ microtiter plates were coated with recombinant human integrin α5β1 (R&D) at 5 μg/ml in PBS overnight and then blocked with PBST buffer (0.5% BSA and 0.05% Tween 20 in PBS) for an hour at room temperature. Phage from culture supernatants were incubated with serially diluted human integrin α5β1 in PBST buffer in a tissue-culture microtiter plate for an hour, after which 80 μl of the mixture was transferred to the target-coated wells for 15 minutes to capture unbound phage. The plate was washed with PBT buffer (0.05% Tween 20 in PBS), and HRP-conjugated anti-M13 (Amersham Pharmacia Biotech) was added (1:5000 in PBST buffer) for 40 minutes. The plate was washed with PBT buffer and developed by adding tetramethylbenzidine substrate (Kirkegaard and Perry Laboratories, Gaithersburg, Md.). The absorbance at 450 nm was plotted as a function of target concentration in solution to determine phage IC₅₀.

Experiment [2] concerns the target T1, recombinant human integrin α5β1 (R&D). As to the kind of experiment: phage competition ELISA IC50 of the Fab-phage against human integrin α5β1, relative to parental h7H5.v1; down arrow = loss, up arrow = improvement of binding affinity. The procedure:
Substitutions with other resides at various positions was achieved by Kunkel mutagenesis using a separate oligonucleotide for each position. […] The IC50 values for binding affinity were determined by phage competition ELISA in FIG. 6. Two variants, h7H5.v2 and h7H5.v3 as indicated were selected to include glycine substitution at position 65 of CDR-H2, cloned into hIgG1 vector, and evaluated binding affinities using BIAcore instrument.
as §1
(An ELISA detects its analyte on a solid surface through an enzyme-linked reagent.)

Experiment [3] shares this target. Put plainly: SPR (BIACORE-3000), human integrin α5β1 immobilized on CM5 chip (about 800 RU), antibody injected 200 nM to 0.2 nM, 25 °C, 1:1 Langmuir fit. The procedure:
(§2) FIG. 9 depicts the results of a BIACORE® analysis of humanized 7H5.v2, v4 and v5-IgG against human integrin α5β1.
(§3) Affinity determinations were performed by surface-plasmon resonance using a BIACORE™-3000 instrument. Immobilization was achieved by random coupling through amino groups using a protocol provided by the manufacturer. Two different formats were operated to study binding kinetics for antibody against human integrin α5β1. In FIGS. 3A, 7, and 9A, antibodies were immobilized on a CM5 sensor chip around 450 response units (RU), and 2-fold serial diluted concentrations of human integrin α5β1 (300 nM to 0.29 nM) in PBT buffer (0.05% Tween 20 in PBS) were injected with a flow rate of 30 μl/min at 25° C. In FIGS. 3B and 9B, human integrin […] was immobilized on a CM5 sensor chip around 800 RU, and 2-fold serial diluted concentrations of antibodies (200 nM to 0.2 nM) in PBT buffer (0.05% Tween 20 in PBS) were injected with a flow rate of 30 μl/min at 25° C. After each injection, the chip was regenerated using 10 mM Glycine-HCl buffer at pH 1.7. Binding response was corrected by subtracting the RU from a blank flow cell. Association rates (kₒₙ) and dissociation rates (koff) were calculated using a simple one-to-one Langmuir binding model (BIAcore Evaluation Software version 3.2). The equilibrium dissociation constant (Kd) was calculated as the ratio koff/kₒₙ.
Background: In SPR one partner is held on a chip, and binding of the other changes the refractive index at the surface.

Experiment [4] shares this target. Put plainly: SPR (BIACORE-3000), antibody immobilized on CM5 chip (about 450 RU), human integrin α5β1 injected 300 nM to 0.29 nM, 25 °C, 1:1 Langmuir fit. Here is the method:
as §2, §3

Experiment [5] has the same target. The experiment is described as above. Here is the method: FIG. 7 depicts the results of a BIACORE® analysis of humanized 7H5.v1, v2 and v3-IgG against human integrin α5β1. […] Humanized 7H5.v2 indicates the most binding affinity improvement in off-rate.
as §3
This is another data set of the same source.

T1 sequence (P08648 42-995 limits assumed, chain 1 of 2): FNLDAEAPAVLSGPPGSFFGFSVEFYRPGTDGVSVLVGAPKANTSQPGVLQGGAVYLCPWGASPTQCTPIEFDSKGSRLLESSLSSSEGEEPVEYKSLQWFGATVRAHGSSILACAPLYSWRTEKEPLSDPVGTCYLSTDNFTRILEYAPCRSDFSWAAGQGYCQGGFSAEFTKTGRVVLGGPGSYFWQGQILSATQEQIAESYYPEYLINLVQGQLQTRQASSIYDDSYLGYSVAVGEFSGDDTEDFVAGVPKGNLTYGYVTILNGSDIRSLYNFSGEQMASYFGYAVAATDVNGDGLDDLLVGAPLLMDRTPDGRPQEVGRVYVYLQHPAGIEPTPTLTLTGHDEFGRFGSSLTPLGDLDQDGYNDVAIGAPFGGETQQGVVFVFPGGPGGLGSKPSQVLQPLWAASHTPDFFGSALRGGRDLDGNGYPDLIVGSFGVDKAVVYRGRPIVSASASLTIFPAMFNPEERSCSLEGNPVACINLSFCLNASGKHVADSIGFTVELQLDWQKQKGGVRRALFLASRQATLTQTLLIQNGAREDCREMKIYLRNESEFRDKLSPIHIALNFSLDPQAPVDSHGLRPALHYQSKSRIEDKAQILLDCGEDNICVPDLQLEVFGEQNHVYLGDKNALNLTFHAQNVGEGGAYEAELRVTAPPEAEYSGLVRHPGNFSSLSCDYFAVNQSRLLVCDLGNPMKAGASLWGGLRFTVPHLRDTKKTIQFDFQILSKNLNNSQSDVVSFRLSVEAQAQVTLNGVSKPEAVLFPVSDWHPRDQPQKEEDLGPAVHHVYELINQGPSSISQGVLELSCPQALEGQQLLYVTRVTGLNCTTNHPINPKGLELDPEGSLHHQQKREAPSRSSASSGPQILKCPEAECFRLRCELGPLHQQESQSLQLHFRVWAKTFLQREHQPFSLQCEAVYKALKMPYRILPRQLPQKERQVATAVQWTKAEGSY
T1 sequence (P05556 21-728 limits assumed, chain 2 of 2): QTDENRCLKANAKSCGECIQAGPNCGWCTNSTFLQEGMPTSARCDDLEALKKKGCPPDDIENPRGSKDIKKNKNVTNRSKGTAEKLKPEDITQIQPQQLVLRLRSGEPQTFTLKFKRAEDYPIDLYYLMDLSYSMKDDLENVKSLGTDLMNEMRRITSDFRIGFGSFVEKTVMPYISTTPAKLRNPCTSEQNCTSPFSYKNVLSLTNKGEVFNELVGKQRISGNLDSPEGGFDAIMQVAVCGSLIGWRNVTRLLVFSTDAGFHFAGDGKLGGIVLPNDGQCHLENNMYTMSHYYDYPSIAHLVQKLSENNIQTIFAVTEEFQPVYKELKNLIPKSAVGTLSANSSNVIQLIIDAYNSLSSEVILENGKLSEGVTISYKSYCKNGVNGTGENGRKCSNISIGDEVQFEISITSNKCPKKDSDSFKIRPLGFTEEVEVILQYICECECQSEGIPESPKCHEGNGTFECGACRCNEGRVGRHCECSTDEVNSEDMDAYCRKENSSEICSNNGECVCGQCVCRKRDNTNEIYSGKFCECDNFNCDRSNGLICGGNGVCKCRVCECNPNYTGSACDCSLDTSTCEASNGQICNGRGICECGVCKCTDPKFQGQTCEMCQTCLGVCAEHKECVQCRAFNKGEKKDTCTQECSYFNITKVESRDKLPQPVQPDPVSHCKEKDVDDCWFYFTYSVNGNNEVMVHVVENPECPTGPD

B1: CDR-L1:N28A (Fab, part only; not given: VH end, constant domains, phage fusion, V domains shown, not shown: another chain or arm of the molecule; large carriers)
VL: DIQMTQSPSSLSASVGDRVTITCKASQAVGSDVAWYQQKPGKAPKTLIYSTSYRYSGVPSRFSGSGSGTDFTLTISSLQPEDFATYYCQQYNSYPFTFGQGTKVEIK
VH: EVQLVESGGGLVQPGGSLRLSCAASGYTFTDYYLYWVRQAPGKGLEWIGGISPSNGGTTFNDNFENKATLSVDKSKNTAYLQMNSLRAEDTAVYYCTRDAYGDWYFDVWGQGT
For the molecule B1, the IC50 (read off the curve) in experiment [1] was found to be 0.2 nM. Further, the Relative Fold to h7H5.v1 in experiment [2] was 2.1 fold.

B2: CDR-H2:N62S (Fab, part only; not given: VH end, constant domains, phage fusion, V domains shown, not shown: another chain or arm of the molecule; a dimerising Fc or GST; large carriers)
VL: DIQMTQSPSSLSASVGDRVTITCKASQNVGSDVAWYQQKPGKAPKTLIYSTSYRYSGVPSRFSGSGSGTDFTLTISSLQPEDFATYYCQQYNSYPFTFGQGTKVEIK
VH: EVQLVESGGGLVQPGGSLRLSCAASGYTFTDYYLYWVRQAPGKGLEWIGGISPSNGGTTFNDSFENKATLSVDKSKNTAYLQMNSLRAEDTAVYYCTRDAYGDWYFDVWGQGT
With B2, the IC50 (read off the curve) in experiment [1] worked out at 0.1 nM. Also, the Relative Fold to h7H5.v1 in experiment [2] was 1.3 fold.

B3: CDR-H2:N54A (Fab, part only; not given: VH end, constant domains, phage fusion, V domains shown, not shown: another chain or arm of the molecule; a dimerising Fc or GST; large carriers)
VL: DIQMTQSPSSLSASVGDRVTITCKASQNVGSDVAWYQQKPGKAPKTLIYSTSYRYSGVPSRFSGSGSGTDFTLTISSLQPEDFATYYCQQYNSYPFTFGQGTKVEIK
VH: EVQLVESGGGLVQPGGSLRLSCAASGYTFTDYYLYWVRQAPGKGLEWIGGISPSAGGTTFNDNFENKATLSVDKSKNTAYLQMNSLRAEDTAVYYCTRDAYGDWYFDVWGQGT
B3: the IC50 (read off the curve) in experiment [1] is 0.2 nM. Also, in experiment [2], the Relative Fold to h7H5.v1 was determined as 2.4 fold.

B4: humanized 7H5.v4-IgG (antibody, V domains shown)
VH: EVQLVESGGGLVQPGGSLRLSCAASGYTFSDYYLYWVRQAPGKGLEWVGGISPSSGGTTFADAFEGRFTISVDKSKNTAYLQMNSLRAEDTAVYYCTRDAYGDWYFDVWGQGT
VL: DIQMTQSPSSLSASVGDRVTITCKASQSVGSDVAWYQQKPGKAPKLLIYSTSYRYSGVPSRFSGSGSGTDFTLTISSLQPEDFATYYCQQYSSYPFTFGQGTKVEIKR
notes: also called h7H5.v4
B4: in experiment [3], the Kd (commonly the equilibrium constant for the complex coming apart) is 0.14 nM; the koff – broadly, the first-order rate constant of dissociation – was 0.00013 s⁻¹; the kon (commonly a measure of how fast the partners come together) turned out to be 930000 M⁻¹ s⁻¹. In addition, in experiment [4], the equilibrium dissociation constant (Kd) is 0.73 nM, the off-rate constant (koff) is 5.5e-05 s⁻¹ and the kon is 75000 M⁻¹ s⁻¹.

B5: h7H5.v5 (antibody, human IgG1, V domains shown)
VH: EVQLVESGGGLVQPGGSLRLSCAASGYTFSDYYLYWVRQAPGKGLEWVSGISPSSGGTTFADAFEGRFTISVDKSKNTAYLQMNSLRAEDTAVYYCTRDAYGDWYFDVWGQGT
VL: DIQMTQSPSSLSASVGDRVTITCKASQSVGSDVAWYQQKPGKAPKLLIYSTSYRYSGVPSRFSGSGSGTDFTLTISSLQPEDFATYYCQQYSSYPFTFGQGTKVEIKR
notes: as human IgG1; also called humanized 7H5.v5-IgG
With B5, in experiment [3], the Kd is 0.26 nM, the koff was 0.00017 s⁻¹ and the kon was 660000 M⁻¹ s⁻¹. In experiment [4], the Kd came to 0.97 nM, the koff came to 6.7e-05 s⁻¹ and the on-rate (kon) came out at 69000 M⁻¹ s⁻¹.

B6: h7H5.v3 (antibody, human IgG1, V domains shown)
VH: EVQLVESGGGLVQPGGSLRLSCAASGYTFTDYYLYWVRQAPGKGLEWIGGISPSSGGTTFADSFEGKATLSVDKSKNTAYLQMNSLRAEDTAVYYCTRDAYGDWYFDVWGQGT
VL: DIQMTQSPSSLSASVGDRVTITCKASQSVGSDVAWYQQKPGKAPKTLIYSTSYRYSGVPSRFSGSGSGTDFTLTISSLQPEDFATYYCQQYSSYPFTFGQGTKVEIKR
notes: as human IgG1; also called humanized 7H5.v3-IgG
With B6, in experiment [5], the Kd came out at 1.07 nM, the koff was 7.5e-05 s⁻¹ and the on-rate constant (kon) was found to be 70000 M⁻¹ s⁻¹.
